Experiment [1] deals with HEL cells stably expressing GLuc. Put plainly: GLuc cell death assay, HEL-GLuc target cells. The conditions noted are these: for GLuc activity (lysis of target cells): T cells, puromycin selected, E:T 10:1, 4 hours.
Description: The blood samples to isolate Peripheral blood mononuclear cells (PBMCs) were obtained from healthy de-identified adult donors. PBMC were isolated from buffy coats by Ficoll-Hypaque gradient centrifugation and re-suspended in XVIVO medium (Lonza) supplanted with 10 ng/ml soluble anti-CD3, 10 ng/ml soluble anti-CD28 and 100 IU recombinant human-IL2. […] The PBMC expressing the indicated CARs and uninfected PBMC were co-cultured with HEL-GLuc target cells for 4 h and lysis of target cells measured by the single-step homogenous GLuc assay by injecting 0.5× CTZ assay buffer as described above.
Cells were selected with puromycin and expanded.
Cells were subsequently co-cultured overnight with HEL.92.1.7 cells that had been engineered to express GLuc.
Experiment [2] has as its system Jurkat cells stably expressing MPL and GLuc. Put plainly: GLuc cell death assay, Jurkat-MPL-GLuc target cells. The conditions noted are these: T cells, puromycin selected, E:T 10:1, 4 hours.
Experiment [3] concerns MPL-expressing HEL.92.1.7 (HEL) cells. Put plainly: Jurkat-NFAT-EGFP reporter assay, co-culture with HEL cells (Table 25). Format: cell-based, human. Conditions: FACS. From the text: (§1) Cells were subsequently co-cultured with MPL-expressing HEL.92.1.7 (HEL) cells. […] CAR construct with HEL cells. The experiment was repeated by co-culturing the Jurkat-NFAT-EGFP cells with either RAJI cells, which have weak MPL expression, or with RAJI-MPL cells that were engineered to ectopically express human MPL receptor.

Experiment [4] relates to RAJI-MPL cells. The experiment is described as follows: Jurkat-NFAT-EGFP reporter assay, co-culture with RAJI-MPL or RAJI-vector cells (Table 25). The class given is cell-based, human. The conditions noted are these: RAJI-MPL cells compared with RAJI-vector cells.
Description: as §1
A general note: Reporter assays use an easily measured gene product as a stand-in for the process of interest.

B1: CD8SP-178-(vL-vH)-Myc-CD28z-T2A-PAC(031615-R04): CAR construct targeting MPL, 178 scFv, CD28 costimulatory domain (protein)
chain: MALPVTALLLPLALLLHAARPDIVMTQAAPSIPVTPGESVSISCRSDKSLLHSNGNTYLFWFLQRPGQSPQLLIYRMSNLASGVPDRFSGSGSGTAFTLRISGVEAEDVGVYYCMQHLEYPYTFGGGTKLEIKGGGGSGGGGSGGGGSQVQLQQSGPELVKPGASVKMSCKASGYAFSSSWLNWVRQRPGKGLEWIGRIYPGDGENHYNGKFKGKATLTADKSSSTGYMQLSSLTSEDSAVYFCASYYEGGYWGQGTLITVSATREQKLISEEDLKIEVMYPPPYLDNEKSNGTIIHVKGKHLCPSPLFPGPSKPFWVLVVVGGVLACYSLLVTVAFIIFWVRSKRSRLLHSDYMNMTPRRPGPTRKHYQPYAPPRDFAAYRSRVKFSRSADAPAYQQGQNQLYNELNLGRREEYDVLDKRRGRDPEMGGKPRRKNPQEGLYNELQKDKMAEAYSEIGMKGERRRGKGHDGLYQGLSTATKDTYDALHMQALPPRSSGSGEGRGSLLTCGDVEENPGPHMTEYKPTVRLATRDDVPRAVRTLAAAFADYPATRHTVDPDRHIERVTELQELFLTRVGLDIGKVWVADDGAAVAVWTTPESVEAGAVFAEIGPRMAELSGSRLAAQQQMEGLLAPHRPKEPAWFLATVGVSPDHQGKGLGSAVVLPGVEAAERAGVPAFLETSAPRNLPFYERLGFTVTADVEVPEGPRTWCMTRKPGA
modifications: listed as DNA
Consider B1, for which the “GLuc activity (lysis of target cells)” value in experiment [1] and in experiment [2] was “modest” each time.

B2: CD8SP-12E10-(vL-vH)-Myc-CD28z-T2A-PAC(031615-S03): CAR construct targeting MPL, 12E10 scFv, CD28 costimulatory domain (protein)
chain: MALPVTALLLPLALLLHAARPDQVQLQQSGPGLVKPSETLSLTCTVSGDSISSYYWSWIRQPPGKGLEWIGYIYYSGSTNYNPSLKSRVTISVDTSKSQFSLKLSSVTAADTAVYYCARGRYFDVWGRGTMVTSSGGGGSGGGGSGGGGSSSYVLTQPPSVSGSPGQSITISCTGTSSDVGGYNYVSWYQQHPGKAPKLMIYEGSKRPSGVSNRFSGSKSGNTASLTISGLQAEDEADYYCSSYTTRSTRVFGGGTKLTVLGAAATREQKLISEEDLKIEVMYPPPYLDNEKSNGTIIHVKGKHLCPSPLFPGPSKPFWVLVVVGGVLACYSLLVTVAFIIFWVRSKRSRLLHSDYMNMTPRRPGPTRKHYQPYAPPRDFAAYRSRVKFSRSADAPAYQQGQNQLYNELNLGRREEYDVLDKRRGRDPEMGGKPRRKNPQEGLYNELQKDKMAEAYSEIGMKGERRRGKGHDGLYQGLSTATKDTYDALHMQALPPRSSGSGEGRGSLLTCGDVEENPGPHMTEYKPTVRLATRDDVPRAVRTLAAAFADYPATRHTVDPDRHIERVTELQELFLTRVGLDIGKVWVADDGAAVAVWTTPESVEAGAVFAEIGPRMAELSGSRLAAQQQMEGLLAPHRPKEPAWFLATVGVSPDHQGKGLGSAVVLPGVEAAERAGVPAFLETSAPRNLPFYERLGFTVTADVEVPEGPRTWCMTRKPGA
modifications: listed as DNA
Take B2: in experiment [2], the “GLuc activity (lysis of target cells)” value is “stronger”.

B3: CD8SP-AB317-(vL-vH)-Myc-CD28z-T2A-PAC(031615-T04): CAR construct targeting MPL, AB317 scFv, CD28 costimulatory domain (protein)
chain: MALPVTALLLPLALLLHAARPDIVLTQSPASLAVSLGQSVTISCRASESVEYYGTSLMQWYQQKPGQPPKLLIYGASNVESGVPARFSGSGSGTDFSLNIHPVEEDDIAMYFCQQSRKVPWTFGGGTKLEIKGGGGSGGGGSGGGGSEVKLVESGGGLVKPGGSRKLSCAASGFTFSSYTMSWVRQTPAKRLEWVATISSGSSTIYYADTVKGRFTISRDNAKNTLFLQMTSLRSEDTAMYYCARRWFLDCWGQGTTLTVSSTREQKLISEEDLKIEVMYPPPYLDNEKSNGTIIHVKGKHLCPSPLFPGPSKPFWVLVVVGGVLACYSLLVTVAFIIFWVRSKRSRLLHSDYMNMTPRRPGPTRKHYQPYAPPRDFAAYRSRVKFSRSADAPAYQQGQNQLYNELNLGRREEYDVLDKRRGRDPEMGGKPRRKNPQEGLYNELQKDKMAEAYSEIGMKGERRRGKGHDGLYQGLSTATKDTYDALHMQALPPRSSGSGEGRGSLLTCGDVEENPGPHMTEYKPTVRLATRDDVPRAVRTLAAAFADYPATRHTVDPDRHIERVTELQELFLTRVGLDIGKVWVADDGAAVAVWTTPESVEAGAVFAEIGPRMAELSGSRLAAQQQMEGLLAPHRPKEPAWFLATVGVSPDHQGKGLGSAVVLPGVEAAERAGVPAFLETSAPRNLPFYERLGFTVTADVEVPEGPRTWCMTRKPGA
modifications: listed as DNA
As to B3, the “GLuc activity (lysis of target cells)” value in experiment [1] and in experiment [2] was “stronger” each time.

B4: CD8SP-MPL-VB22Bw4-(vL-vH)-Myc-CD28z-T2A-PAC(031615-B06): CAR construct targeting MPL, VB22Bw4 scFv, CD28 costimulatory domain (protein)
chain: MALPVTALLLPLALLLHAARPDDIVMTQSPLSLPVTPGEPASISCRSSKSLLHSNGNTYLYWFLQKPGQSPQLLIYRMSNLASGVPDRFSGSGSGTDFTLKISRVEAEDVGVYYFMQHIEYPFTFGQGTKLEIKGGGGSGGGGSGGGGSQVQLVQSGPEVKKPGASVKVSCKASGYTFTNSWMNWVRQRPGKGLEWIGRIYPGDGETIYNGKFRVRVTITADESTSTAYMQLSSLRSEDTAVYYCARGYDDYSFAYWGQGTTVTVSSTREQKLISEEDLKIEVMYPPPYLDNEKSNGTIIHVKGKHLCPSPLFPGPSKPFWVLVVVGGVLACYSLLVTVAFIIFWVRSKRSRLLHSDYMNMTPRRPGPTRKHYQPYAPPRDFAAYRSRVKFSRSADAPAYQQGQNQLYNELNLGRREEYDVLDKRRGRDPEMGGKPRRKNPQEGLYNELQKDKMAEAYSEIGMKGERRRGKGHDGLYQGLSTATKDTYDALHMQALPPRSSGSGEGRGSLLTCGDVEENPGPHMTEYKPTVRLATRDDVPRAVRTLAAAFADYPATRHTVDPDRHIERVTELQELFLTRVGLDIGKVWVADDGAAVAVWTTPESVEAGAVFAEIGPRMAELSGSRLAAQQQMEGLLAPHRPKEPAWFLATVGVSPDHQGKGLGSAVVLPGVEAAERAGVPAFLETSAPRNLPFYERLGFTVTADVEVPEGPRTWCMTRKPGA
modifications: listed as DNA
Take B4: the “GLuc activity (lysis of target cells)” value in experiment [2] is given as “modest”.

B5: CD8SP-MPL-161-(vL-vH)-Myc-BBz-T2A-PAC(021015-R07): CAR targeting MPL: 161 scFv, Myc tag, CD8 hinge/TM, 41BB, CD3z, T2A, puromycin resistance (protein)
chain: MALPVTALLLPLALLLHAARPDDIQMTQSSSSFSVSLGDRVTITCMASEDIYIRLAWYQQKPGNAPRLLISAATSLETGVPSRFSGSGSGKDYTLSITSLQTEDVGTYYCQQYWSSPWTFGGGTKLEINGGGGSGGGGSGGGGSDVQLQESGPGLVKPSQSLSLTCTVTGYSITSDYTWNWIRQFPGNKLEWMGYITYSGSTSYNPSLKSRNSITRDTSKNQFFLQLNSVTTEDTATYYCARLGRRYTMDYWGQGTSVTVSSTREQKLISEEDLAKPTTTPAPRPPTPAPTIASQPLSLRPEACRPAAGGAVHTRGLDFACDIYIWAPLAGTCGVLLLSLVITLYCKRGRKKLLYIFKQPFMRPVQTTQEEDGCSCRFPEEEEGGCELRVKFSRSADAPAYQQGQNQLYNELNLGRREEYDVLDKRRGRDPEMGGKPRRKNPQEGLYNELQKDKMAEAYSEIGMKGERRRGKGHDGLYQGLSTATKDTYDALHMQALPPRSSGSGEGRGSLLTCGDVEENPGPHMTEYKPTVRLATRDDVPRAVRTLAAAFADYPATRHTVDPDRHIERVTELQELFLTRVGLDIGKVWVADDGAAVAVWTTPESVEAGAVFAEIGPRMAELSGSRLAAQQQMEGLLAPHRPKEPAWFLATVGVSPDHQGKGLGSAVVLPGVEAAERAGVPAFLETSAPRNLPFYERLGFTVTADVEVPEGPRTWCMTRKPGA
modifications: listed as DNA
notes: CAR targeting MPL: 161 scFv, Myc tag, CD8 hinge/TM, 41BB, CD3z, T2A, puromycin resistance
As for B5, in experiment [1] (CAR-expressing PBMC, 4 h, versus uninfected PBMC), the “killing of HEL-GLuc cells” value is listed as “increased killing”. Besides, the “EGFP expression (NFAT-EGFP reporter)” value in experiment [3] and in experiment [4] was “strongest” throughout.

B6: CD8SP-161-(vL-vH)-Myc-CD28z-T2A-PAC(021715-Z07): CAR targeting MPL: 161 scFv with CD28 hinge, transmembrane and cytosolic domains and CD3z (protein)
chain: MALPVTALLLPLALLLHAARPDDIQMTQSSSSFSVSLGDRVTITCMASEDIYIRLAWYQQKPGNAPRLLISAATSLETGVPSRFSGSGSGKDYTLSITSLQTEDVGTYYCQQYWSSPWTFGGGTKLEINGGGGSGGGGSGGGGSDVQLQESGPGLVKPSQSLSLTCTVTGYSITSDYTWNWIRQFPGNKLEWMGYITYSGSTSYNPSLKSRNSITRDTSKNQFFLQLNSVTTEDTATYYCARLGRRYTMDYWGQGTSVTVSSTREQKLISEEDLKIEVMYPPPYLDNEKSNGTIIHVKGKHLCPSPLFPGPSKPFWVLVVVGGVLACYSLLVTVAFIIFWVRSKRSRLLHSDYMNMTPRRPGPTRKHYQPYAPPRDFAAYRSRVKFSRSADAPAYQQGQNQLYNELNLGRREEYDVLDKRRGRDPEMGGKPRRKNPQEGLYNELQKDKMAEAYSEIGMKGERRRGKGHDGLYQGLSTATKDTYDALHMQALPPRSSGSGEGRGSLLTCGDVEENPGPHMTEYKPTVRLATRDDVPRAVRTLAAAFADYPATRHTVDPDRHIERVTELQELFLTRVGLDIGKVWVADDGAAVAVWTTPESVEAGAVFAEIGPRMAELSGSRLAAQQQMEGLLAPHRPKEPAWFLATVGVSPDHQGKGLGSAVVLPGVEAAERAGVPAFLETSAPRNLPFYERLGFTVTADVEVPEGPRTWCMTRKPGA
modifications: listed as DNA
notes: CAR targeting MPL: 161 scFv with CD28 hinge, transmembrane and cytosolic domains and CD3z
In the case of B6, the “GLuc activity (lysis of target cells)” value in experiment [1] and in experiment [2] was “stronger” throughout. Further, the “EGFP expression (NFAT-EGFP reporter)” value in experiment [3] and in experiment [4] was “strongest” throughout.
